B1: PCT64.13C (antibody, V domains shown)
VH: EVQLVESGGGLVKPGGSLRLSCAASGFTFTNAWLDWVRQAPGKGLEWVGRIKSKTDGGTTDHAAPVKGRFTISRDDSKNTVYLQMNSLKIEDTAVYYCTTGVETYDFWSGYDDHYYDYYFKDVWGKGTTVTVSS
VL: EIVLTQSPGTLSLSPGERATLSCRASQSVSNNYLAWYQQKPGQAPRLLIYGASSRATGIPDRFSGSGSGTDFTLTISRLEPEDFAVYYCQQSARSFTFGPGTKVDIK
B2: PG9.iGL (antibody, V domains shown)
VH: QVQLVESGGGVVQPGRSLRLSCAASGFTFSSYGMHWVRQAPGKGLEWVAVISYDGSNKYYADSVKGRFTISRDNSKNTLYLQMNSLRAEDTAVYYCAREAGGPDYRNGYNYYDFWSGYYYYYYMDVWGKGTTVTVSS
VL: QSALTQPASVSGSPGQSITISCTGTSSDVGGYNYVSWYQQHPGKAPKLMIYEVSNRPSGVSNRFSGSKSGNTASLTISGLQAEDEADYYCSSYTSSSTVVFGGGTKLTVL

Biological target: T1, BG505 SOSIP.D664 (HIV-1 isolate BG505 (clade A), stabilised)
T1 construct: also called BG505.SOSIP.664; source: HEK 293F, co-transfected with furin, purified (HisTrap, SEC); copies: 3 + 3
Assay: SPR; IgG captured as ligand by anti-human IgG (Human Antibody Capture Kit) on a GLC chip, ProteOn XPR36; trimer as analyte; 1x HBS-EP+ pH 7.4 with 1 mg/ml BSA; 1:1 binding model; highest SOSIP concentration 5 uM or 10 uM
Settings: both partners purified

Binder | Kd [µM]
B1 | > 5
B2 | > 5

Source: PMC9671094 (Immunity, 2022)
